Source: patent US20240270846A1 (published 2024)

These binders were tested against T1, CD3 epsilon homodimer protein (UniProt P07766 23-126) (assay: SPR Biacore T200, CD3 epsilon homodimer on chip, antibody as analyte;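 further: homodimer amine-coupled to a CM4 sensor chip, run at 25 °C in HBS-EP+ buffer, with kinetic parameters derived in Biacore T200 Evaluation Software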).
T1 construct: also called CD3 (CD3 epsilon)
T1 sequence (P07766 23-126): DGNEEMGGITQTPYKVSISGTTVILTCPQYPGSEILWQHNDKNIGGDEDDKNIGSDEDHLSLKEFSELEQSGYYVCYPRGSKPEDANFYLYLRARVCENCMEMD

| Binder | KD ratio (KD of CE115HA000 / KD of altered form) |
| --- | --- |
| CE115HA000 H chain altered form N31Y (antibody, human IgG1, kappa, L234A L235A, N297A, name in Kabat numbering, one-arm antibody) heavy: QVQLVESGGGVVQPGRSLRLSCAASGFTFSYAWMHWVRQAPGKGLEWVAQIKAKSNNYATYYAESVKGRFTISRDDSKNSLYLQMNSLKTEDTAVYYCRYVHYGAYYGVDAWGQGTTVTVSSASTKGPSVFPLAPSSKSTSGGTAALGCLVKDYFPEPVTVSWNSGALTSGVHTFPAVLQSSGLYSLSSVVTVPSSSLGTQTYICNVNHKPSNTKVDKKVEPKSCDKTHTCPPCPAPEAAGGPSVFLFPPKPKDTLMISRTPEVTCVVVDVSHEDPEVKFNWYVDGVEVHNAKTKPREEQYASTYRVVSVLTVLHQDWLNGKEYKCKVSNKALPAPIEKTISKAKGQPREPQVYTLPPSRCELTKNQVSLSCAVKGFYPSDIAVEWESNGQPENNYKTTPPVLDSDGSFFLVSKLTVDKSRWQQGNVFSCSVMHEALHNHYTQKSLSLSPDYKDDDDK EPKSSDKTHTCPPCPAPELLGGPSVFLFPPKPKDTLMISRTPEVTCVVVDVSHEDPEVKFNWYVDGVEVHNAKTKPREEQYNSTYRVVSVLTVLHQDWLNGKEYKCKVSNKALPAPIEKTISKAKGQPREPQVCTLPPSRDELTKNQVSLWCLVKGFYPSDIAVEWESNGQPENNYKTTPPVLDSDGSFFLYSKLTVDKSRWQQGNVFSCSVMHEALHNRYTQKSLSLSP light: DIVMTQSPLSLPVTPGEPASISCRSSQSLVHSNRNTYLHWYQQKPGQAPRLLIYKVSNRFSGVPDRFSGSGSGTDFTLKISRVEAEDVGVYYCGQGTQVPYTFGQGTKLEIKRTVAAPSVFIFPPSDEQLKSGTASVVCLLNNFYPREAKVQWKVDNALQSGNSQESVTEQDSKDSTYSLSSTLTLSKADYEKHKVYACEVTHQGLSSPVTKSFNRGEC | 1.1 |
| CE115HA000 H chain altered form N53G (antibody, human IgG1, kappa, L234A L235A, N297A, name in Kabat numbering, one-arm antibody) heavy: QVQLVESGGGVVQPGRSLRLSCAASGFTFSNAWMHWVRQAPGKGLEWVAQIKAKSGNYATYYAESVKGRFTISRDDSKNSLYLQMNSLKTEDTAVYYCRYVHYGAYYGVDAWGQGTTVTVSSASTKGPSVFPLAPSSKSTSGGTAALGCLVKDYFPEPVTVSWNSGALTSGVHTFPAVLQSSGLYSLSSVVTVPSSSLGTQTYICNVNHKPSNTKVDKKVEPKSCDKTHTCPPCPAPEAAGGPSVFLFPPKPKDTLMISRTPEVTCVVVDVSHEDPEVKFNWYVDGVEVHNAKTKPREEQYASTYRVVSVLTVLHQDWLNGKEYKCKVSNKALPAPIEKTISKAKGQPREPQVYTLPPSRCELTKNQVSLSCAVKGFYPSDIAVEWESNGQPENNYKTTPPVLDSDGSFFLVSKLTVDKSRWQQGNVFSCSVMHEALHNHYTQKSLSLSPDYKDDDDK EPKSSDKTHTCPPCPAPELLGGPSVFLFPPKPKDTLMISRTPEVTCVVVDVSHEDPEVKFNWYVDGVEVHNAKTKPREEQYNSTYRVVSVLTVLHQDWLNGKEYKCKVSNKALPAPIEKTISKAKGQPREPQVCTLPPSRDELTKNQVSLWCLVKGFYPSDIAVEWESNGQPENNYKTTPPVLDSDGSFFLYSKLTVDKSRWQQGNVFSCSVMHEALHNRYTQKSLSLSP light: DIVMTQSPLSLPVTPGEPASISCRSSQSLVHSNRNTYLHWYQQKPGQAPRLLIYKVSNRFSGVPDRFSGSGSGTDFTLKISRVEAEDVGVYYCGQGTQVPYTFGQGTKLEIKRTVAAPSVFIFPPSDEQLKSGTASVVCLLNNFYPREAKVQWKVDNALQSGNSQESVTEQDSKDSTYSLSSTLTLSKADYEKHKVYACEVTHQGLSSPVTKSFNRGEC | 0.95 |
| CE115HA000 H chain altered form N53H (antibody, human IgG1, kappa, L234A L235A, N297A, name in Kabat numbering, one-arm antibody) heavy: QVQLVESGGGVVQPGRSLRLSCAASGFTFSNAWMHWVRQAPGKGLEWVAQIKAKSHNYATYYAESVKGRFTISRDDSKNSLYLQMNSLKTEDTAVYYCRYVHYGAYYGVDAWGQGTTVTVSSASTKGPSVFPLAPSSKSTSGGTAALGCLVKDYFPEPVTVSWNSGALTSGVHTFPAVLQSSGLYSLSSVVTVPSSSLGTQTYICNVNHKPSNTKVDKKVEPKSCDKTHTCPPCPAPEAAGGPSVFLFPPKPKDTLMISRTPEVTCVVVDVSHEDPEVKFNWYVDGVEVHNAKTKPREEQYASTYRVVSVLTVLHQDWLNGKEYKCKVSNKALPAPIEKTISKAKGQPREPQVYTLPPSRCELTKNQVSLSCAVKGFYPSDIAVEWESNGQPENNYKTTPPVLDSDGSFFLVSKLTVDKSRWQQGNVFSCSVMHEALHNHYTQKSLSLSPDYKDDDDK EPKSSDKTHTCPPCPAPELLGGPSVFLFPPKPKDTLMISRTPEVTCVVVDVSHEDPEVKFNWYVDGVEVHNAKTKPREEQYNSTYRVVSVLTVLHQDWLNGKEYKCKVSNKALPAPIEKTISKAKGQPREPQVCTLPPSRDELTKNQVSLWCLVKGFYPSDIAVEWESNGQPENNYKTTPPVLDSDGSFFLYSKLTVDKSRWQQGNVFSCSVMHEALHNRYTQKSLSLSP light: DIVMTQSPLSLPVTPGEPASISCRSSQSLVHSNRNTYLHWYQQKPGQAPRLLIYKVSNRFSGVPDRFSGSGSGTDFTLKISRVEAEDVGVYYCGQGTQVPYTFGQGTKLEIKRTVAAPSVFIFPPSDEQLKSGTASVVCLLNNFYPREAKVQWKVDNALQSGNSQESVTEQDSKDSTYSLSSTLTLSKADYEKHKVYACEVTHQGLSSPVTKSFNRGEC | 0.55 |
| CE115HA000 H chain altered form N53A (antibody, human IgG1, kappa, L234A L235A, N297A, name in Kabat numbering, one-arm antibody) heavy: QVQLVESGGGVVQPGRSLRLSCAASGFTFSNAWMHWVRQAPGKGLEWVAQIKAKSANYATYYAESVKGRFTISRDDSKNSLYLQMNSLKTEDTAVYYCRYVHYGAYYGVDAWGQGTTVTVSSASTKGPSVFPLAPSSKSTSGGTAALGCLVKDYFPEPVTVSWNSGALTSGVHTFPAVLQSSGLYSLSSVVTVPSSSLGTQTYICNVNHKPSNTKVDKKVEPKSCDKTHTCPPCPAPEAAGGPSVFLFPPKPKDTLMISRTPEVTCVVVDVSHEDPEVKFNWYVDGVEVHNAKTKPREEQYASTYRVVSVLTVLHQDWLNGKEYKCKVSNKALPAPIEKTISKAKGQPREPQVYTLPPSRCELTKNQVSLSCAVKGFYPSDIAVEWESNGQPENNYKTTPPVLDSDGSFFLVSKLTVDKSRWQQGNVFSCSVMHEALHNHYTQKSLSLSPDYKDDDDK EPKSSDKTHTCPPCPAPELLGGPSVFLFPPKPKDTLMISRTPEVTCVVVDVSHEDPEVKFNWYVDGVEVHNAKTKPREEQYNSTYRVVSVLTVLHQDWLNGKEYKCKVSNKALPAPIEKTISKAKGQPREPQVCTLPPSRDELTKNQVSLWCLVKGFYPSDIAVEWESNGQPENNYKTTPPVLDSDGSFFLYSKLTVDKSRWQQGNVFSCSVMHEALHNRYTQKSLSLSP light: DIVMTQSPLSLPVTPGEPASISCRSSQSLVHSNRNTYLHWYQQKPGQAPRLLIYKVSNRFSGVPDRFSGSGSGTDFTLKISRVEAEDVGVYYCGQGTQVPYTFGQGTKLEIKRTVAAPSVFIFPPSDEQLKSGTASVVCLLNNFYPREAKVQWKVDNALQSGNSQESVTEQDSKDSTYSLSSTLTLSKADYEKHKVYACEVTHQGLSSPVTKSFNRGEC | 0.55 |
| CE115HA000 H chain altered form N53I (antibody, human IgG1, kappa, L234A L235A, N297A, name in Kabat numbering, one-arm antibody) heavy: QVQLVESGGGVVQPGRSLRLSCAASGFTFSNAWMHWVRQAPGKGLEWVAQIKAKSINYATYYAESVKGRFTISRDDSKNSLYLQMNSLKTEDTAVYYCRYVHYGAYYGVDAWGQGTTVTVSSASTKGPSVFPLAPSSKSTSGGTAALGCLVKDYFPEPVTVSWNSGALTSGVHTFPAVLQSSGLYSLSSVVTVPSSSLGTQTYICNVNHKPSNTKVDKKVEPKSCDKTHTCPPCPAPEAAGGPSVFLFPPKPKDTLMISRTPEVTCVVVDVSHEDPEVKFNWYVDGVEVHNAKTKPREEQYASTYRVVSVLTVLHQDWLNGKEYKCKVSNKALPAPIEKTISKAKGQPREPQVYTLPPSRCELTKNQVSLSCAVKGFYPSDIAVEWESNGQPENNYKTTPPVLDSDGSFFLVSKLTVDKSRWQQGNVFSCSVMHEALHNHYTQKSLSLSPDYKDDDDK EPKSSDKTHTCPPCPAPELLGGPSVFLFPPKPKDTLMISRTPEVTCVVVDVSHEDPEVKFNWYVDGVEVHNAKTKPREEQYNSTYRVVSVLTVLHQDWLNGKEYKCKVSNKALPAPIEKTISKAKGQPREPQVCTLPPSRDELTKNQVSLWCLVKGFYPSDIAVEWESNGQPENNYKTTPPVLDSDGSFFLYSKLTVDKSRWQQGNVFSCSVMHEALHNRYTQKSLSLSP light: DIVMTQSPLSLPVTPGEPASISCRSSQSLVHSNRNTYLHWYQQKPGQAPRLLIYKVSNRFSGVPDRFSGSGSGTDFTLKISRVEAEDVGVYYCGQGTQVPYTFGQGTKLEIKRTVAAPSVFIFPPSDEQLKSGTASVVCLLNNFYPREAKVQWKVDNALQSGNSQESVTEQDSKDSTYSLSSTLTLSKADYEKHKVYACEVTHQGLSSPVTKSFNRGEC | 0.57 |
| CE115HA000 H chain altered form N53D (antibody, human IgG1, kappa, L234A L235A, N297A, name in Kabat numbering, one-arm antibody) heavy: QVQLVESGGGVVQPGRSLRLSCAASGFTFSNAWMHWVRQAPGKGLEWVAQIKAKSDNYATYYAESVKGRFTISRDDSKNSLYLQMNSLKTEDTAVYYCRYVHYGAYYGVDAWGQGTTVTVSSASTKGPSVFPLAPSSKSTSGGTAALGCLVKDYFPEPVTVSWNSGALTSGVHTFPAVLQSSGLYSLSSVVTVPSSSLGTQTYICNVNHKPSNTKVDKKVEPKSCDKTHTCPPCPAPEAAGGPSVFLFPPKPKDTLMISRTPEVTCVVVDVSHEDPEVKFNWYVDGVEVHNAKTKPREEQYASTYRVVSVLTVLHQDWLNGKEYKCKVSNKALPAPIEKTISKAKGQPREPQVYTLPPSRCELTKNQVSLSCAVKGFYPSDIAVEWESNGQPENNYKTTPPVLDSDGSFFLVSKLTVDKSRWQQGNVFSCSVMHEALHNHYTQKSLSLSPDYKDDDDK EPKSSDKTHTCPPCPAPELLGGPSVFLFPPKPKDTLMISRTPEVTCVVVDVSHEDPEVKFNWYVDGVEVHNAKTKPREEQYNSTYRVVSVLTVLHQDWLNGKEYKCKVSNKALPAPIEKTISKAKGQPREPQVCTLPPSRDELTKNQVSLWCLVKGFYPSDIAVEWESNGQPENNYKTTPPVLDSDGSFFLYSKLTVDKSRWQQGNVFSCSVMHEALHNRYTQKSLSLSP light: DIVMTQSPLSLPVTPGEPASISCRSSQSLVHSNRNTYLHWYQQKPGQAPRLLIYKVSNRFSGVPDRFSGSGSGTDFTLKISRVEAEDVGVYYCGQGTQVPYTFGQGTKLEIKRTVAAPSVFIFPPSDEQLKSGTASVVCLLNNFYPREAKVQWKVDNALQSGNSQESVTEQDSKDSTYSLSSTLTLSKADYEKHKVYACEVTHQGLSSPVTKSFNRGEC | 0.55 |
